Data published in patent US20160289285A1 (Molecular Partners, published 2016).

Tests used:
human HGF [1] = target: T1, human HGF (human, UniProt P14210 32-728); assay: SPR (ProteOn)
T1 construct: also called hepatocyte growth factor
Method: SPR was measured using a ProteOn instrument (BioRad) and measurement was performed according standard procedures known to the person skilled in the art.

human HGF [2] = target: T1, human HGF; assay: cMet receptor competition ELISA; 5 nM human HGF, immobilised human cMet
Text: (§1) Such assays are well known to the person skilled in the art. For designed ankyrin repeat domains with binding specificity to VEGF-A, a quantitative sandwich enzyme immunoassay technique was used according to the manufacturer (VEGF-A Quantikine kit DVE00, R&D Systems). A monoclonal antibody specific for VEGF-A was pre-coated onto a microplate. VEGF-A standards and mixtures of VEGF-A (20 pM) and Protein #18, #19, or #20 at varying concentrations were applied to the wells and any free VEGF-A present (i.e. not bound to the designed ankyrin repeat domain) is bound by the immobilized antibody. After washing away any unbound substances, an enzyme-linked polyclonal antibody specific for VEGF-A is added to the wells. Following a wash to remove any unbound antibody-enzyme reagent, a substrate solution is added to the wells and color develops in proportion to the amount of VEGF-A bound in the initial step. The color development is stopped and the intensity of the color is measured. […] IC₅₀ values were calculated from such titration curves obtained as described above using Graph Pad Prism software and standard procedures known to the person skilled in the art. For designed ankyrin repeat domains with binding specificity to HGF, a cMet receptor competition assay was performed. For that purpose, 5 nM of human cMet receptor in PBS were immobilized on Maxisorp plates overnight at 4° C. After washing with PBS 0.05% TWEEN 20, the plate was blocked for 2 h with shaking at 300 rpm using PBS containing 0.05% TWEEN 20 and 0.25% Casein at RT. A constant concentration of 5 nM human HGF was pre-incubated for 30 min at RT with a 1000 nM-1 pM of Proteins #23, #26, #28, and #29 (1:4 dilution series each) on a dilution plate in PBS 0.05% TWEEN 20. After washing of the ELISA plate with PBS 0.05% TWEEN, pre-incubated samples were transferred to the ELISA plate and plate was incubated for 2 h at RT with shaking at 300 rpm. After washing with PBS 0.25% TWEEN, 200 ng/ml anti human HGF antibody was added for 1 h at RT with shaking at 300 rpm. After washing with PBS 0.05% TWEEN, 100 ng/ml HRP conjugated polyclonal anti HGF species antibody was added for 30 min at RT with shaking at 300 rpm. Detection was using 1:3 diluted BM blue POD (Roche).

human serum albumin = target: T2, human serum albumin (human, UniProt P02768 25-609); assay: size exclusion chromatography coupled to static light scattering
T2 construct: For SEC-MALS purified from CSL Behring 20% solution; also called HSA; SA (human)

human HGF [3] = target: T1, human HGF; assay: ELISA; species of HGF not stated
human VEGF-A [4] = target: T3, human VEGF-A (human, UniProt P15692-4 27-191, limits assumed); assay: ELISA; species of VEGF-A not stated
T3 construct: Recombinant, bought or produced in CHO or Pichia pastoris; also called hVEGF-A

human VEGF-A [5] = target: T3, human VEGF-A; assay: ELISA, EC50 comparison
human HGF [6] = target: T1, human HGF; assay: ELISA, EC50 comparison
human VEGF-A [7] = target: T3, human VEGF-A; assay: VEGF-A Quantikine competition ELISA; competitor: immobilised anti-VEGF-A monoclonal antibody
Text: as §1, with “After washing with PBS 0.05% TWEEN, 100 ng/ml HRP conjugated polyclonal anti HGF species antibody was added for 30 min at RT with shaking at 300 rpm. Detection was using 1:3 diluted BM blue POD (Roche).” left out

T3 sequence (P15692 other isoform, or with tags, fused parts or gaps limits assumed): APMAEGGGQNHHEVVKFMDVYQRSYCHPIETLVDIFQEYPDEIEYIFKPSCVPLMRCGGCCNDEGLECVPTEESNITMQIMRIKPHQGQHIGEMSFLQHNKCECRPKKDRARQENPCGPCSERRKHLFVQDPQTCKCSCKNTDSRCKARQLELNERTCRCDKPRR
T1 sequence (P14210 32-728 limits assumed): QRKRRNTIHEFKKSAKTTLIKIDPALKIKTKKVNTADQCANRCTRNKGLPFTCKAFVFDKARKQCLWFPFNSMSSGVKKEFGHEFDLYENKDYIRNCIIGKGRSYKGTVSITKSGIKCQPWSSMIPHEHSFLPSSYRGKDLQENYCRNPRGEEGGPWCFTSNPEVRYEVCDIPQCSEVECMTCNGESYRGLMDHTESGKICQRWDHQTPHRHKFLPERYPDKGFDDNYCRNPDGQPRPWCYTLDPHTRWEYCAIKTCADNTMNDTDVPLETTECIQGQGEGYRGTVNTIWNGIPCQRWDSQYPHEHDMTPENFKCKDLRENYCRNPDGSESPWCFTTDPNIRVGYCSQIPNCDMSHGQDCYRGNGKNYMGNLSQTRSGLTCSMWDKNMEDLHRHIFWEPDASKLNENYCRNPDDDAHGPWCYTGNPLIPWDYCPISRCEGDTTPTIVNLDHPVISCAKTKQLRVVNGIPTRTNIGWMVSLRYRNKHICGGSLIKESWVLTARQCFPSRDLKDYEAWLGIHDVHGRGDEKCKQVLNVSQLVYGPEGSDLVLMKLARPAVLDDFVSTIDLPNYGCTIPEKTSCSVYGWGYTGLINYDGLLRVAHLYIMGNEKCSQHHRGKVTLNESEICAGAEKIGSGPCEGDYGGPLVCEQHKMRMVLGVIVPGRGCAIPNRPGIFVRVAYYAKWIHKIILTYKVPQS
T2 sequence (P02768 25-609 limits assumed): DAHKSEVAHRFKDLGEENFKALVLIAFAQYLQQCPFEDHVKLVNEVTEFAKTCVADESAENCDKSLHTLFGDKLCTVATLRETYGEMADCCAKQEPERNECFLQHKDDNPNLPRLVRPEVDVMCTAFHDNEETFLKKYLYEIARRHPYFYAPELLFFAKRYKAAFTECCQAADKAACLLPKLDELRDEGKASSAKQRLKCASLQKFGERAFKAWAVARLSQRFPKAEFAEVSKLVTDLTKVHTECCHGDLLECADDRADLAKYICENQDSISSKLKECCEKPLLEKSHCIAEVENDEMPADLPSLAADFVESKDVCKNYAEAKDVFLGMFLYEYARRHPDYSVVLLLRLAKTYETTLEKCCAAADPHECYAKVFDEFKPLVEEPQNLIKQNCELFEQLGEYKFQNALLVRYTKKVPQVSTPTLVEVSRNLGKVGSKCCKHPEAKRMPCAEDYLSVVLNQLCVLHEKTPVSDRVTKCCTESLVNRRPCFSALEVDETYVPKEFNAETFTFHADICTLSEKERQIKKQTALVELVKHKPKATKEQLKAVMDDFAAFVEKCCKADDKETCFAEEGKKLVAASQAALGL

B1: Protein #29 (designed binder)
chain: MRGSHHHHHHGSDLGKKLLEAARAGQDDEVRILMANGADVNAKYEDGLTPLHLAAFYGHLEIVEVLLKHGADVNATDAWGHTPLHLAAYYGHLEIVEVLLKYGADVNTHDKEGMTALHLAALTGHLEIVEVLLKNGADVNAQDKFGKTAFDISIDNGNEDLAEILQKAA
Work on B1 yielded a Kd (human HGF [1]) of 0.025 nM and an IC50 (human HGF [2]) of 1.36 nM.

B2: Protein #110 (designed binder)
chain: MRGSHHHHHHGSDLGKKLLEAARAGQDDEVRELLKAGADVNAKDYFSHTPLHLAARNGHLKIVEVLLKAGADVNAKDFAGKTPLHLAANEGHLEIVEVLLKAGADVNAQDIFGKTPADIAADAGHEDIAEVLQKAAGSPTPTPTTPTPTPTTPTPTPTGSDLGKKLLEAARAGQDDEVRELLKAGADVNAKDKSGNTPLHLAARFGHLEIVEFLLKAGADVNAKDETGKTPLHLAAIWGHLEIVEVLLKAGADVNAKDLYGRTPLHLAAKLRHLEIVEVLLKAGADVNAQDKFGKTAFDISIDNGNEDLAEILQKAAGSPTPTPTTPTPTPTTPTPTPTGSDLDKKLLEAARAGQDDEVRELLKAGADVNALDQIGWTPLHLAANYGHLEIVEVLLKAGADVNAKDLWGQTPLHLAAWKGHLEIVEVLLKAGADVNAKDTDGLTPLHLAAIRGHLEIVEVLLKAGADVNAQDKSGKTPADLAADAGHEDIAEVLQKAAGSPTPTPTTPTPTPTTPTPTPTGSDLGKKLLEAARAGQDDEVRELLKAGADVNAKDYFSHTPLHLAARNGHLKIVEVLLKAGADVNAKDFAGKTPLHLAANEGHLEIVEVLLKAGADVNAQDIFGKTPADIAADAGHEDIAEVLQKAA
B2: binds (human serum albumin).

B3: Protein #28 (designed binder)
chain: MRGSHHHHHHGSDLGMKLLEAARAGQDDEVRILMANGADVNAHDTWGLTPLHLAAFHGHQEIVEVLLKHGADVNAQDFYGKTPLHLAALRGHLEIVEVLLKYGADVNAQDQFGKTAFDISIDNGNEDLAEILQKAA
With B3 the Kd (human HGF [1]) was 0.026 nM and the IC50 (human HGF [2]) was 0.955 nM.

B4: Protein #71 (designed binder)
chain: MRGSHHHHHHGSDLGKKLLEAARAGQDDEVRILMANGADVNAKDYFSHTPLHLAARNGHLKIVEVLLKAGADVNAKDFAGKTPLHLAANDGHLEIVEVLLKHGADVNAQDIFGKTPADIAADAGHEDIAEVLQKLGGGGSGGGGSGGGGSGGGGSRSDLDKKLLEAARAGQDDEVRILLKAGADVNAKDYLGWTPLHLAAHEGHLEIVEVLLKAGADVNAKDVSGYTPLHLAAADGHLEIVEVLLKAGADVNAKDNTGWTPLHLSADLGHLEIVEVLLKAGADVNAQDKFGKTAFDISIDNGNEDLAEILQKLGGGGSGGGGSGGGGSGGGGSRSDLGKKLLEAARAGQDDEVRILLKAGADVNAKDRYGDTPLHLAADAGHLKIVEVLLKAGADVNAEDYFGNTPLHLAASAGHLEIVEVLLKAGADVNAKDDAGNTPLHLAANTGHLKIVEVLLKAGADVNAQDKSGKTPADLAADAGHEDIAEVLQKLN
Work on B4 yielded an EC50 (human HGF [3]) of 0.179 nM and an EC50 (human VEGF-A [4]) of 0.205 nM.

B5: Protein #69 (designed binder)
chain: MRGSHHHHHHGSDLGKKLLEAARAGQDDEVRILMANGADVNAKDYFSHTPLHLAARNGHLKIVEVLLKAGADVNAKDFAGKTPLHLAANDGHLEIVEVLLKHGADVNAQDIFGKTPADIAADAGHEDIAEVLQKLGSPTPTPTTPTPTPTTPTPTPTGSRSDLDKKLLEAARAGQDDEVRILLKAGADVNAKDYLGWTPLHLAAHEGHLEIVEVLLKAGADVNAKDVSGYTPLHLAAADGHLEIVEVLLKAGADVNAKDNTGWTPLHLSADLGHLEIVEVLLKAGADVNAQDKFGKTAFDISIDNGNEDLAEILQKLGSPTPTPTTPTPTPTTPTPTPTGSRSDLGKKLLEAARAGQDDEVRILLKAGADVNAKDRYGDTPLHLAADAGHLKIVEVLLKAGADVNAEDYFGNTPLHLAASAGHLEIVEVLLKAGADVNAKDDAGNTPLHLAANTGHLKIVEVLLKAGADVNAQDKSGKTPADLAADAGHEDIAEVLQKLN
With B5 the “factor more potent (EC50) than Protein #71” value (human VEGF-A [5]) was 2 fold, the “factor more potent (EC50) than Protein #71” value (human HGF [6]) was 1.3 fold and the EC50 (human HGF [3]) was 0.117 nM. It also gave an EC50 (human VEGF-A [4]) of 0.102 nM.

B6: Protein #26 (designed binder)
chain: MRGSHHHHHHGSDLGKKLLEAARAGQDDEVRILLKAGADVNAKDRYGDTPLHLAADIGHLEIVEVLLKAGADVNAEDYFGNTPLHLAASYGHLEIVEVLLKAGADVNAKDDYGNTPLHLAANTGHLEIVEVLLKAGADVNAQDKSGKTPADLAADAGHEDIAEVLQKAA
Work on B6 yielded a Kd (human HGF [1]) of 0.051 nM and an IC50 (human HGF [2]) of 0.623 nM.

B7: Protein #20 (designed binder)
chain: MRGSHHHHHHGSDLDKKLLEAARAGQDDEVRILLKAGADVNAKDSTGWTPLHLAAPWGHPEIVEVLLKAGADVNAKDFQGWTPLHLAAAVGHLEIVEVLLKAGADVNAQDKSGKTPADLAADAGHEDIAEVLQKAA
B7 gave an IC50 (human VEGF-A [7]) of 0.004 nM.

B8: Protein #18 (designed binder)
chain: MRGSHHHHHHGSDLDKKLLEAARAGQDDEVRILLKAGADVNAKDSTGWTPLHLAAPWGHPEIVEVLLKAGADVNAKDFQGWTPLHLAAAAGHLEIVEVLLKAGADVNAQDKSGKTPADLAADAGHEDIAEVLQKAA
B8 showed an IC50 (human VEGF-A [7]) of 0.013 nM.

B9: Protein #19 (designed binder)
chain: MRGSHHHHHHGSDLGKKLLEAARAGQDDEVRILLKAGADVNAKDSTGWTPLHLAAPWGHPEIVEVLLKAGADVNAKDFQGWTPLHLAAAAGHLEIVEVLLKAGADVNAQDKSGKTPADLAADAGHEDIAEVLQKAA
With B9 the IC50 (human VEGF-A [7]) was 0.013 nM.

B10: Protein #107 (designed binder)
chain: MRGSHHHHHHGSDLGKKLLEAARAGQDDEVRELLKAGADVNAKDYFSHTPLHLAARNGHLKIVEVLLKAGADVNAKDFAGKTPLHLAANDGHLEIVEVLLKAGADVNAQDIFGKTPADIAADAGHEDIAEVLQKAAGSPTPTPTTPTPTPTTPTPTPTGSDLDKKLLEAARAGQDDEVRILLKAGADVNAKDSTGWTPLHLAAPWGHPEIVEVLLKAGADVNAKDYQGWTPLHLAAAVGHLEIVEVLLKAGADVNAQDKSGKTPADLAADAGHEDIAEVLQKAAGSPTPTPTTPTPTPTTPTPTPTGSDLGKKLLEAARAGQDDEVRILLKAGADVNAKDRYGDTPLHLAADAGHLKIVEVLLKAGADVNAEDYFGNTPLHLAASAGHLEIVEVLLKAGADVNAKDDAGNTPLHLAANTGHLKIVEVLLKAGADVNAQDKSGKTPADLAADAGHEDIAEVLQKAAGSPTPTPTTPTPTPTTPTPTPTGSDLGKKLLEAARAGQDDEVRELLKAGADVNAKDYFSHTPLHLAARNGHLKIVEVLLKAGADVNAKDFAGKTPLHLAANDGHLEIVEVLLKAGADVNAQDIFGKTPADIAADAGHEDIAEVLQKAA
With B10 the “factor more potent (EC50) than Protein #69” value (human VEGF-A [5]) was 1.4 fold, the “factor more potent (EC50) than Protein #69” value (human HGF [6]) was 1.1 fold and the EC50 (human HGF [3]) was 0.107 nM. For the same binder, the EC50 (human VEGF-A [4]) was 0.073 nM.

B11: Protein #23 (designed binder)
chain: MRGSHHHHHHGSDLGKKLLEAARAGQDDEVRILMANGADVNAKDRFGDTPLHLAADIGHLKIVEVLLKHGADVNAEDWFGNTPLHLAASMGHLEIVEVLLKYGADVNAMDDYGNTPLHLAANTGHLEIVEVLLKHGADVNAQDKFGKTAFDISIDNGNEDLAEILQKAA
For B11, the Kd (human HGF [1]) was 0.016 nM and the IC50 (human HGF [2]) was 0.915 nM.
